Residue numbers refer to the chain shown, from its start. Numbers in names are those of the source.
T1: SUDV GP on rVSV particles (Sudan virus (SUDV), UniProt Q66814 33-676)
T1 sequence: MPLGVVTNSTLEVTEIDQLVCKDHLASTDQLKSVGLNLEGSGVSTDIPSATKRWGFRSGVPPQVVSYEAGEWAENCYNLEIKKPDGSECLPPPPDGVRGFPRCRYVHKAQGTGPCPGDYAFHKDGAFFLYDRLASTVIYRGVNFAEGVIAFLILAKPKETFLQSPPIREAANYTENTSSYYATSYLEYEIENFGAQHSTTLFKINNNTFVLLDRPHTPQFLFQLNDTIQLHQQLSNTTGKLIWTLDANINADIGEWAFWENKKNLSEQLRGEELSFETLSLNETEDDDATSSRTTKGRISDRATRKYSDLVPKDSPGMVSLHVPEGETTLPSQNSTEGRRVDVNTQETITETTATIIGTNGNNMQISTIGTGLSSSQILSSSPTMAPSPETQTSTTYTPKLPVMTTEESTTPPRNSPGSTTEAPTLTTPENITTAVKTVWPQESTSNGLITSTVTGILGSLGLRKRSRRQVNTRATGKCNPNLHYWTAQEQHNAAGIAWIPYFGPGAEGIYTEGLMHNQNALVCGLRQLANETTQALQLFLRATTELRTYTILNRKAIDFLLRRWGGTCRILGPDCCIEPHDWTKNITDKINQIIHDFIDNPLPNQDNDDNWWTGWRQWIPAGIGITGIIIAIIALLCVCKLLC

T2: RESTV GP on rVSV particles (Reston virus (RESTV), UniProt Q66799 34-677)
T2 sequence: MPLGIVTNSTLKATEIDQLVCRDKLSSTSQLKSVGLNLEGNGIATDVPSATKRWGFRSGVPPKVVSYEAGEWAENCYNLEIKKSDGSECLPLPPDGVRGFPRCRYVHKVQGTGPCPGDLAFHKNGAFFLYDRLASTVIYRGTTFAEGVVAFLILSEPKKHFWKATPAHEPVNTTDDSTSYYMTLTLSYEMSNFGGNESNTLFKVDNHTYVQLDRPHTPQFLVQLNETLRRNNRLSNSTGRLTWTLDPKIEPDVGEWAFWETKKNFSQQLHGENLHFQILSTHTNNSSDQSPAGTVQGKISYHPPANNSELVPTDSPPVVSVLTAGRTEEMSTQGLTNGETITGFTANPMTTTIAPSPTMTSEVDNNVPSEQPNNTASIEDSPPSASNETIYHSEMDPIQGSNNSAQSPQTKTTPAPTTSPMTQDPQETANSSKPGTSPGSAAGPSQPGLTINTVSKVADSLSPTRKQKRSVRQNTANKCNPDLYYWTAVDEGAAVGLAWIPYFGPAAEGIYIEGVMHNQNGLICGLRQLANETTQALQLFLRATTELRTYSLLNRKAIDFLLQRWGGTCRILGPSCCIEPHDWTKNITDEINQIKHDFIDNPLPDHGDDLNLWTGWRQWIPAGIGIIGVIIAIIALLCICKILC

T3: TAFV GP on VSV pseudotype particles (Tai Forest virus (TAFV), UniProt Q66810 33-676)
T3 sequence: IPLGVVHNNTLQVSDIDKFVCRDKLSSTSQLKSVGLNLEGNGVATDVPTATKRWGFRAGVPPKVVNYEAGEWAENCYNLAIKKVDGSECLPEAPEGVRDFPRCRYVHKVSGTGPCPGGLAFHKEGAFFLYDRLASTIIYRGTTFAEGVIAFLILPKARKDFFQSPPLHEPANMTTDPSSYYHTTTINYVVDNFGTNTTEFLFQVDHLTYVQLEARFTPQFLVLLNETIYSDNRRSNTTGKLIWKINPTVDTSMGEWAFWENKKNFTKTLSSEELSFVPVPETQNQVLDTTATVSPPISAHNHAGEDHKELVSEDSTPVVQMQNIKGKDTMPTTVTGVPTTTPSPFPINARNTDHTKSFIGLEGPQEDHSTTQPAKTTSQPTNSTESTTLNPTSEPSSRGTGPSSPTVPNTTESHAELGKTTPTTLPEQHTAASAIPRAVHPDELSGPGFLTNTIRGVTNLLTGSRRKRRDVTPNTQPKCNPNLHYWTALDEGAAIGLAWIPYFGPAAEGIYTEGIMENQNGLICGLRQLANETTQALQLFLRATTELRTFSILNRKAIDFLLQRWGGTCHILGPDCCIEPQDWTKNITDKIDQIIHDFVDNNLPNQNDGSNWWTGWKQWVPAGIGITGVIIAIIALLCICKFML

T4: EBOV GP on rVSV particles (Ebola virus (EBOV), UniProt Q05320 33-676)
T4 sequence: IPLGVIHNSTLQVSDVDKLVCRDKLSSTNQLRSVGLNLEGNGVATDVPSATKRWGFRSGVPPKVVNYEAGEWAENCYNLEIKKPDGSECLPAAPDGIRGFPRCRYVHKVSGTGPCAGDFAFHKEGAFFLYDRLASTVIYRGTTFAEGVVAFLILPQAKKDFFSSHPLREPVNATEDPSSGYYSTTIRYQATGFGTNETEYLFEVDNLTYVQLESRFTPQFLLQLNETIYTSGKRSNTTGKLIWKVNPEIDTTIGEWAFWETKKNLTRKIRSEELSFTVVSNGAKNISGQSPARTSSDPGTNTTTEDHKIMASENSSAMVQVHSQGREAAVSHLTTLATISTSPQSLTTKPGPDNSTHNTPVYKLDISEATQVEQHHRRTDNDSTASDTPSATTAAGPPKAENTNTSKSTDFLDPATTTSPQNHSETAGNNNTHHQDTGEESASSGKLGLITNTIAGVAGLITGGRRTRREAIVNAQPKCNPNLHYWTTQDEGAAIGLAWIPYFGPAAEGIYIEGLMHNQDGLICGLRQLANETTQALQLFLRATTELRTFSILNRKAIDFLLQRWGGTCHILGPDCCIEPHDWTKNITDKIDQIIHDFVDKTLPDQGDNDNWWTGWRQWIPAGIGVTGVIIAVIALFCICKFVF

B1: PE-87 D110A (antibody, V domains shown)
VH: QVQLVQSGVTLVQPGGSLRVSCAASGFTFSSYAMSWVRQAPGKGLEWVSAISGLGGSTYYADSVKGRFTISRDNSKNTLYLQMNSLRAEDTAVYYCAKDHRVWAAGYHFAYWGQGALVTVSS
VL: DIVLTQSPSTLSASVGDRVTITCRASQSISSWLAWYQQKPGEAPKLLISDASSLESGVPSRFSGSGSGTEFTLTISSLQPDDFATYYCQQYYSSPTFGGGTKVEIK
B2: PE-87 Y111A (antibody, V domains shown)
VH: B1 VH with A110D, Y111A
VL: B1 VL

Columns and labels:
Experiment in all cases: cell-based or functional assay
[1] = biological target: T1, SUDV GP on rVSV particles
[2] = biological target: BDBV GP on rVSV particles (Bundibugyo virus (BDBV))
[3] = biological target: T2, RESTV GP on rVSV particles
[4] = biological target: T3, TAFV GP on VSV pseudotype particles
[5] = biological target: T4, EBOV GP on rVSV particles

Binder | IC50 (nM), neutralization of rVSV-GP [1] | IC50 (nM), neutralization of rVSV-GP [2] | IC50 (nM), neutralization of rVSV-GP [3] | IC50 (nM), neutralization of rVSV-GP [4] | IC50 (nM), neutralization of rVSV-GP [5]
B1 | 1.5 nM | 0.9 nM | 0.4 nM | 2.1 nM | 2 nM
B2 | 0.8 nM | 0.4 nM | 0.1 nM | 1.1 nM | 0.8 nM
